The values below come from US20040131615A1, “Methods for treating pain by administering a nerve growth factor antagonist and an opioid analgesic and compositions containing the same” (priority 2002, published 2004).

By Kd is commonly meant a measure of binding affinity in units of concentration. Read a low Kd as higher affinity.

This assay addresses human NGF (Homo sapiens, UniProt P01138). In words: binding affinity; method not given.

Sequence of human NGF (P01138 122-241 limits assumed): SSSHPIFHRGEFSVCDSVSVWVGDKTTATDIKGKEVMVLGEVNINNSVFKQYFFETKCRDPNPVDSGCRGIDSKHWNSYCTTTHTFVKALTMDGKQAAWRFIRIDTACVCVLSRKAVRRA

B1: humanized anti-NGF antibody E3 (antibody, V domains shown)
VH: VQLQESGPGLVKLPSETLSLTCTVSGFSLIGYDLNWIRQPPGKGLEWIGIIWGDGTTDYNSAVKSRVTISKDTSKNQFSLKLSSVTAADTAVYYCARGGYWYATSYYFDYWGQGTLVTVS
VL: DIQMTQSPSSLSASVGDRVTITCRASQSISNNLNWYQQKPGKAPKLLIYYTSRFHSGVPSRFSGSGSGTDFTFTISSLQPEDIATYYCQQEHTLPYTFGQGTKLEIK
B1 yielded an equilibrium dissociation constant (Kd) of 0.07 nM.
